“Also recorded” adds a separate entry of the source.
How the values were obtained:
[1] = Fluorescence dequenching liposome leakage (liposome disruption) assay; format: biochemical
Experimental: Liposomes composed of DOPC (1,2-dioleoyl-sn-glycero-3-phosphocholine), DOPC with 25% cholesterol (molar ratio to DOPC), 3:1 DOPC:POPS (1-palmitoyl-2-oleoyl-sn-glycero-3-phospho-L-serine), and 3:1 DOPC:POPS with 25% cholesterol were prepared identically to a final concentration of 5 mM total lipid as previously described (32); lipids from Avanti Polar Lipids. Lipids solubilized in chloroform were dried under nitrogen gas and stored under vacuum for a minimum of 2 hours to remove residual solvent. The dried lipid film was the resuspended in Tris buffer (10 mM Tris, 150 mM NaCl, and 0.02% NaN3 pH 8.0) containing 25 mM Sulforhodamine B (SRB) fluorophore (Sigma) and subjected to 10 sequential freeze thaw cycles in liquid nitrogen. Liposomes were extruded 29 times through 100 nm pore size polycarbonate filters (Avanti Polar Lipids) and purified from free fluorophore using a PD-10 gel filtration column (GE Healthcare) into storage buffer (10 mM Tris, 150 mM NaCl, and 0.02% NaN3 pH 8.0). Liposome size and homogeneity was analyzed by dynamic light scattering (DLS) using a Dynapro Nanostar™ DLS (Wyatt Technologies). On average liposome diameter ranged from 120-130 nm with low polydispersity. Liposomes were stored at 4° C. and used within 5 days of preparation.
Liposome disruption and content leakage was analyzed by fluorescence spectroscopy as previously described (32). […] The solution was rapidly acidified to the target pH by addition of a fixed volume of acidification buffer and incubated for 20 minutes. […] SRB fluorescence is independent of pH within the ranges used here. Finally. Triton X-100 (Sigma) was added to a final concentration of 1% to fully disrupt liposomes. Liposome disruption as indicated by content leakage and SRB dequenching was normalized using the formula [Fω−F(0)]/[F(Max)−F(0)] where F(0) is the average fluorescence intensity before acidification and F(Max) is the average fluorescence intensity ater addition of Triton X-100. All measurements were collected on a Varian Cary Eclipse spectrophotometer using an excitation/emission pairing of […] and 2.5 nm slit widths at 24° C. Any data plotted together was collected using the sum batch of liposomes.

[2] = Native mass spectrometry of pH-induced changes in oligomeric state; format: physicochemical; conditions: for cooperativity of the pH-induced transition: native MS at different pH values; for pH transition point of disassembly (pH set point, pH0): evaluated from pH 7 down to pH 3; for reversibility of disassembly: pH lowered with acetic acid, then raised by ammonia or buffer exchange
Experimental: Samples were buffer exchanged twice into 200 mM ammonium acetate (NH4Ac; MilliporeSigma) using Micro Bio-Spin P-6 columns (Bio-Rad). Protein concentrations were determined by UV absorbance using a Nanodrop 2000c spectrophotometer (Thermo Fisher Scientific) and diluted to make up a 10-fold stock solution (50 μM and 16.7 μM monomer and trimer concentration, respectively). 1 μL of this solution was mixed with 9 μL 200 mM NH4Ac/50 mM triethylammonium acetate (TEAA; MilliporeSigma), adjusted with acetic acid (Fisher Scientific) to obtain the desired final pH and incubated on ice for 30 min. […] 5 μL samples were filled into an in-house pulled glass capillary and ionized by nESI at a monomer or a trimer concentration of 5 μM or 1.67 μM respectively. All pH titration data were acquired on an in-house modified SYNAPT® G2 HDMS (Waters Corporation) with a surface-induced dissociation (SID) device incorporated between a truncated trap traveling wave ion guide and the ion mobility cell (39). The following instrument parameters were used spray voltage 0.9-1.3 kV; sampling cone, 20 V; extraction cone, 2 V; source temperature, room temperature; trap gas flow, 4 mL/min; trap bins, 45V. The data were processed with MassLynx™ v4.1 and DriftScope™ v2.1. For relative quantification, charge state series were extracted from DriftScope™, and smoothed spectra (mean; window 20; number of smooths 20) were integrated.
Python scripts were written to generate theoretical models according Equation 1, and curve-fitting to native mass spectrometry data (FIGS. 1, 3, 5) according to Equation 2 by nonlinear least squares using curve fit from scipy.optimize. The free energy estimates for individual n, m, and l layers used in Equation 1 modeling were estimated by solving linear equations as follows: values for the free energy of folding for designs pRO-2 and variants were estimated from GdmCl denaturation experiments (FIG. 11); each of these designs have different numbers of n, m, and l layers, thus series of linear equations relating the number of each layer type to the total free energies of folding were solved to estimate dG values of the individual layers of each type.

B1: SEQ ID NO: 38: similar to pRO2.3, TEV site parallel to the termini, aromatic residues on the n-terminal helix (protein)
chain: GSEEEIKRLLEELRKSSEELRRITKELDDLSKELRVGGSGSGSEMLVEHNKLISEHNRIIVENNRIIVEILEAIARVGGSGSGSVEVERILDELRKSSEELDRVTKELKKLTEELDVGGSGSGSVEALVRHNVLITRHNDIIVKNNDIINKILKLIGEAVGGSENLYFQGSGSEFERWLRQLEESTKELRKFTEELRRFSEELKVGGSGSGSVEALVRHNEAIVEHNKAIVKNNDIIVKILELVTERI
- liposome disruption better than the pRO2.3 homotrimer ([1]; compared with pRO2.3 homotrimer): 5-10%

B2: SEQ ID NO: 37: pRO2.3, single-chain, GS linkers on all loops, asymmetrized, TEV site opposite to the termini direction (protein)
chain: GSEEEIKRLLEELRKSSEELRRITKELDDLSKELRVGGSGSGSEMLVEHNKLISEHNRIIVENNRIIVEILEAIARVGGSGSGSVEVERILDELRKSSEELDRVTKELKKLTEELDVGGSENLYFQGSGSVEALVRHNVLITRHNDIIVKNNDIINKILKLIAEAVGGSGSGSELERILRELEESTKELRKATEELRRLSEELKVGGSGSGSVEALVRHNEAIVEHNKIIVKNNDIIVKILELITERI
- liposome disruption relative to pRO2.3, nanoparticle fusion ([1]; fused at its n-terminus to a nanoparticle): as well as pRO2.3
- kinetics of dissociation in the liposome assay ([1]; linked-pH trimer): slower
- membrane disruption level (dye leakage over time) ([1]; linked-pH trimer, order of minutes): same membrane disruption levels

B3: pRO-2.3-GS: pRO-2.3 with flexible GS loop, SEQ ID NO: 35-36 (protein)
chain 1: MGSHHHHHHGSGSENLYFQGSEYEIRKALEELKASTAELKRATASLRAITEELKKGGSGSGSEDALVEHNRAIVEHNAIIVENNRIIAAVLELIVRAIK
chain 2: GSEYEIRKALEELKASTAELKRATASLRAITEELKKGGSGSGSEDALVEHNRAIVEHNAIIVENNRIIAAVLELIVRAIK
- oligomeric state at pH 7 / neutral pH ([2]; native MS): retains its trimeric assembly at neutral pH
- cooperativity of the pH-induced transition [2]: less cooperativity

B4: pRO-2-GS: pRO-2 with flexible GS loop, SEQ ID NO: 33-34 (protein)
chain 1: MGSHHHHHHGSGSENLYFQGSEYEIRKALEELKAATAELKRATASLRAITEELKKGGSGSGSEDALVEHNRAIVEHNAIIVEHNRIIAAVLELIVRAIK
chain 2: GSEYEIRKALEELKAATAELKRATASLRAITEELKKGGSGSGSEDALVEHNRAIVEHNAIIVEHNRIIAAVLELIVRAIK
- oligomeric state at pH 7 / neutral pH ([2]; native MS): loses its homogenous trimeric assembly at neutral pH

B5: pRO-4: designed heterodimer, SEQ ID NO: 27-28, chains 81 and 82 (protein)
chain 1: MDEEDHLKKLKTHLEKLERHLKLLEDHAKKLEDILKERPEDSAVKESIDELRRSIELVRESIEIFRQSVEEEEGSSHHHHHHSSGENLYFQGDVKELTKILDTLTKILETATKVIKDATKLLEEHRKSDKPDPRLIETHKKLVEEHETLVRQHKELAEEHLKRTR
chain 2: MDEEDHLKKLKTHLEKLERHLKLLEDHAKKLEDILKERPEDSAVKESIDELRRSIELVRESIEIFRQSVEEEEGDVKELTKILDTLTKILETATKVIKDATKLLEEHRKSDKPDPRLIETHKKLVEEHETLVRQHKELAEEHLKRTR
chain 3: MDEEDHLKKLKTHLEKLERHLKLLEDHAKKLEDILKERPEDSAVKESIDELRRSIELVRESIEIFRQSVEEEE
chain 4: GSSHHHHHHSSGENLYFQGDVKELTKILDTLTKILETATKVIKDATKLLEEHRKSDKPDPRLIETHKKLVEEHETLVRQHKELAEEHLKRTR
modifications: Synthetic polpypeptide; (1)..(18) Optional residues
- pH transition point of disassembly (pH set point, pH0) ([2]; native MS): ~4 pH

B6: pRO-4 L23A/V130A: pRO-4 mutant heterodimer, SEQ ID NO: 29-30, 83-84 (protein)
chain 1: MDEEDHLKKLKTHLEKLERHLKLAEDHAKKLEDILKERPEDSAVKESIDELRRSIELVRESIEIFRQSVEEEEGSSHHHHHHSSGENLYFQGDVKELTKILDTLTKILETATKVIKDATKLLEEHRKSDKPDPRLIETHKKLVEEHETLARQHKELAEEHLKRTR
chain 2: MDEEDHLKKLKTHLEKLERHLKLAEDHAKKLEDILKERPEDSAVKESIDELRRSIELVRESIEIFRQSVEEEEGDVKELTKILDTLTKILETATKVIKDATKLLEEHRKSDKPDPRLIETHKKLVEEHETLARQHKELAEEHLKRTR
chain 3: MDEEDHLKKLKTHLEKLERHLKLAEDHAKKLEDILKERPEDSAVKESIDELRRSIELVRESIEIFRQSVEEEE
chain 4: GSSHHHHHHSSGENLYFQGDVKELTKILDTLTKILETATKVIKDATKLLEEHRKSDKPDPRLIETHKKLVEEHETLARQHKELAEEHLKRTR
modifications: Synthetic polpypeptide; (1)..(18) Optional residues
- pH transition point of disassembly (pH set point, pH0) ([2]; native MS): ~4.6 pH

B7: pRO-2.1: pRO-2 variant, SEQ ID NO: 3-4 (protein)
chain 1: MGSHHHHHHGSGSENLYFQGSEYEIRKALEELKAALAELKRATASLRAITEELKKNPSEDALVEHNRAIVEHNAIIVEVLRIIAAVLELIVRAIK
chain 2: SEYEIRKALEELKAALAELKRATASLRAITEELKKNPSEDALVEHNRAIVEHNAIIVEVLRIIAAVLELIVRAIK
- pH transition point of disassembly (pH set point, pH0) ([2]; native MS): ~3.5 pH

B8: pRO-2.3: pRO-2 variant, SEQ ID NO: 7-8 (protein)
chain 1: MGSHHHHHHGSGSENLYFQGSEYEIRKALEELKASTAELKRATASLRAITEELKKNPSEDALVEHNRAIVEHNAIIVENNRIIAAVLELIVRAIK
chain 2: SEYEIRKALEELKASTAELKRATASLRAITEELKKNPSEDALVEHNRAIVEHNAIIVENNRIIAAVLELIVRAIK
- reversibility of disassembly [2]: Re-association was induced

B9: pRO-2.4: pRO-2 variant, SEQ ID NO: 9-10 (protein)
chain 1: MGSHHHHHHGSGSENLYFQGSEYEIRKALEELKAATAELKRATASLRASTEELKKNPSEDALVENNRLIVEHNAIIVEHNRIIAAVLELIVRAIK
chain 2: SEYEIRKALEELKAATAELKRATASLRASTEELKKNPSEDALVENNRLIVEHNAIIVEHNRIIAAVLELIVRAIK
- cooperativity of the pH-induced transition [2]: less cooperative
- pH transition point of disassembly (pH set point, pH0) ([2]; native MS): higher transition pH
- reversibility of disassembly [2]: Re-association was induced

B10: pRO-2.2: pRO-2 variant, SEQ ID NO: 5-6 (protein)
chain 1: MGSHHHHHHGSGSENLYFQGSEYEIRKALEELKAALAELKRATASLRAILEELKKNPSEDAIVEAIRAIVEHNAIIVEVLRIIAAVLELIVRAIK
chain 2: SEYEIRKALEELKAALAELKRATASLRAILEELKKNPSEDAIVEAIRAIVEHNAIIVEVLRIIAAVLELIVRAIK
- pH response of oligomeric state (pH-induced disassembly) ([2]; native MS, pH ~7 to ~3): eliminates the pH response altogether; also recorded: no significant pH response
